Laboratory results reported in PMC3663191 (mBio, 2013).
Changes are numbered by the printed parent chain. Numbers in names are those of the source. Where “and” joins values, the source holds several entries; their conditions need not be identical. Equal values may be shown once.

B1: WspR^wt (His-tagged WspR, purified) (enzyme, Pseudomonas aeruginosa)
chain: MHNPHESKTDLGAPLDGAVMVLLVDDQAMIGEAVRRSLASEAGIDFHFCSDPQQAVAVANQIKPTVILQDLVMPGVDGLTLLAAYRGNPATRDIPIIVLSTKEEPTVKSAAFAAGANDYLVKLPDAIELVARIRYHSRSYIALQQRDEAYRALRESQQQLLETNLVLQRLMNSDGLTGLSNRRHFDEYLEMEWRRSLREQSQLSLLMIDVDYFKSYNDTFGHVAGDEALRQVAGAIREGCSRSSDLAARYGGEEFAMVLPGTSPGGARLLAEKVRRTVESLQISHDQPRPGSHLTVSIGVSTLVPGGGGQTFRVLIEMADQALYQAKNNGRNQVGLMEQPVPPAPAG
B2: WspR^V72D (His-tagged WspR V72D variant, purified) (enzyme, Pseudomonas aeruginosa)
chain: B1 chain with V72D

Target: the molecule itself
Test: SEC

Protein	stoichiometry N
B1	4 and 2
B2	4 and 2
